The values below come from patent US8710181B2, “Use of tris(hydroxymethyl) aminomethane for the stabilization of peptides, polypeptides and proteins” (Novo Nordisk A/S, priority 2004, dated 2014).

Type in all cases: physicochemical
A short description of data set [1]: Room temperature stability of Arg34-GLP-1[7-37] loading solution and column eluate with TRIS, monitored by RP-HPLC (Example 1). As to conditions: for Arg34-GLP-1[7-37] eluate concentration: 10 mM Tris pH 9.2, RP-HPLC; for Arg34-GLP-1[7-37] concentration in loading solution: 10 mM TRIS, pH adjusted to 3.2, RP-HPLC. The procedure: An aqueous solution of Arg34-GLP-1[7-37] containing approximately 2% by weight ethanol and 10 mM of tris(hydroxymethyl)aminomethane, at pH 9.2 was made at room temperature, pH was adjusted to 3.2. The room temperature stability of the solution was monitored by RP-HPLC.
The solution was loaded on an ion-exchange column, Source 30S, Amersham Bioscience, at pH 3.23 and after washing the column with an acid buffer containing ethanol and citric acid, the product was eluted with an aqueous solution containing 10 mM Tris at pH 9.2. The room temperature stability of the eluate from the column was monitored by RP-HPLC (Table 1)/(FIG. 1).

A short description of data set [2]: Comparative room temperature stability with glycine instead of TRIS, monitored by RP-HPLC (Comparative Example 1). The procedure: A comparative test with 20-200 mM glycine instead of tris(hydroxymethyl)aminomethane was done.
An aqueous solution of Arg34-GLP-1[7-37] containing approximately 2% by weight ethanol and 20 mM of glycine, at pH 9.0 was made at room temperature, pH was adjusted to approximately 3.3.
The solution was loaded to an ion-exchange column, Source 30S, Amersham Bioscience, at pH 3.3 and after wash of the column with an acid buffer containing ethanol and citric acid, the product was eluted with an aqueous solution containing 200 mM Glycine at pH 9.5. The stability of the eluate from the column was monitored by RP-HPLC at room temperature for 5 days.

Data set [3] is described as follows: Repeated preparative runs on Source 30S column 20 cm I.D. with TRIS: pressure and fibrillation (Example 2). The procedure: (§1) Gelation/fibrillation/aggregation can be estimated by the Thioflavin T test […] resulting in a colored response the degree of gelation. Another result would be increased viscosity of the gelated solution resulting in increasing back pressure on chromatographic columns during multiple runs—this is usually the first indication of gelation taking place, […].
An aqueous solution of Arg34-GLP-1[7-37] containing approximately 2% by weight ethanol and 10 mM of tris(hydroxymethyl)aminomethane, at pH 9.2 was made at room temperature by dissolution of an Arg34-GLP-1[7-37] isoelectric precipitate directly in the solution. Subsequently, pH was adjusted to 3.2.
A preparative aliquot of the solution was loaded on a large scale ion-exchange column, 20 cm I.D. (internal diameter), Source 30S, Amersham Bioscience, at pH 3.3 and after washing the column with an acid buffer containing ethanol and citric acid to remove impurities, the product was eluted with an aqueous solution containing 10 mM Tris at pH 9.2. The column was regenerated with 1 M NaOH, equilibrated with the acidic wash buffer, and the column was loaded again with loading solution. Eluate from the Source 30S column was automatically pH adjusted with 100 mM tris buffer pH 7.4 to pH 8.0.

A short description of data set [4]: Repeated runs on Source 30S column 45 cm i.d. with TRIS: pressure, analysis of column material for aggregated/fibrillated proteins (Example 4). Particulars: after 283 runs on Source 30S column, 10 mM Tris. The procedure: as §1
An aqueous solution of Arg34-GLP-1[7-37] containing approximately 2% by weight ethanol and 10 mM of tris(hydroxymethyl)aminomethane, at pH 9.2 was made at room temperature, pH was adjusted to 3.2.
Aliquot of the solution was loaded to an ion-exchange column, 45 cm i.d., Source 30S, Amersham Bioscience, at pH 3.3 and after wash of the column with an acid buffer containing ethanol and citric acid, the product was eluted with an aqueous solution containing 10 mM Tris at pH 9.2. The column was regenerated and loaded again with loading solution.

A short description of data set [5]: Repeated preparative runs on Source 30Q and RP-HPLC C-18 columns with TRIS: pressure and fibrillation (Example 3).
Source text: as §1
An aqueous solution of N^ε-hexadecanoyl-γ-glutamyl-Lys26-Arg34-GLP-1[7-37] containing approximately 2% by weight ethanol and 10 mM of tris(hydroxymethyl)aminomethane, at pH 9.2 was made at room temperature by dissolution of an N^ε-hexadecanoyl-γ-glutamyl-Lys26-Arg34-GLP-1[7-37] isoelectric precipitate directly in the solution.
A preparative aliquot of the solution was loaded on a large scale ion-exchange column, 45 cm I.D. (internal diameter), Source 30Q, Amersham Bioscience, at pH 9.2 and after washing the column with an buffer containing 20 mM tris and 63% by weight ethanol (pH 7.5) to remove impurities, the product was eluted by a sodium chloride gradient at pH 7.5 in a 20 mM tris buffer containing 63% by weight ethanol. The column was regenerated with 1 M NaOH, equilibrated with the pH 7.5 wash buffer, and the column was loaded again with loading solution. Eluate from the Source 30Q column was automatically diluted with water before it was loaded on another large scale column, RP-HPLC column 100 Å C-18, particle diameter 15 μm, column I.D. 45 cm, and eluted with a buffer solution containing 20 mM tris, 125 mM sodium chloride and approx. 45% by weight ethanol at pH 6.9. The column was regenerated with a 70% ethanol solution and subsequently equilibrated with a 25% ethanol solution containing 20 mM Tris.

Data set [6] in a line: Repeated runs on Source 30Q and RP-HPLC columns with TRIS: pressure, analysis of column material for aggregated/fibrillated proteins (Example 5). As to conditions: 20 mM tris.
Source text: as §1
An aqueous solution of N^ε-hexadecanoyl-γ-glutamyl-Lys26-Arg34-GLP-1[7-37] containing approximately 2% by weight ethanol and 10 mM of tris(hydroxymethyl)aminomethane, at pH 9.2 was made at room temperature. Aliquot of the solution was loaded to an ion-exchange column, 45 cm i.d., Source 30Q, Amersham Bioscience, at pH 9.2 and after wash of the column with an neutral buffer containing 20 mM tris and 63% by weight ethanol (pH 7.5), the product was eluted by an sodium chloride gradient at pH 7.5 in a 20 mM tris buffer containing 63% by weight ethanol. The column was regenerated and loaded again with loading solution. One eluate from the Source 30Q column was automatically diluted with water before it was applied to an other column, RP-HPLC column 100 Å C-18, particle diameter i.d. 15 μm, column i.d. 45 cm, and eluted with a buffer containing 20 mM tris, 125 mM sodium chloride and approx. 45% by weight ethanol at pH 6.9.

Setting [7] is: after 60 runs on Source 30S column, 20 cm I.D., 10 mM Tris.
[8] abbreviates: after 60 runs on both Source 30Q column and RP-HPLC column, tris buffers with ethanol.
Where [9] appears, read: after 77 runs on Source 30Q column, 63% ethanol.

On to Arg34-GLP-1[7-37], for which the “Arg34-GLP-1[7-37] eluate concentration” value in data set [1] (Day 0, Source 30S eluate) worked out at 1.4 mg/mL; in data set [1] (Day 1, Source 30S eluate), 1.4 mg/mL; in data set [1] (Day 2, Source 30S eluate), 1.4 mg/mL; in data set [1] (Day 3, Source 30S eluate), 1.3 mg/mL. The “Arg34-GLP-1[7-37] concentration in loading solution” value worked out at 1.7 mg/mL in data set [1] (Day 0, approx. 2% ethanol); 1.7 mg/mL in data set [1] (Day 1, approx. 2% ethanol); 1.7 mg/mL in data set [1] (Day 2, approx. 2% ethanol); 1.7 mg/mL in data set [1] (Day 5, approx. 2% ethanol). In data set [1] (loading solution and eluate with 10 mM TRIS), the Gelation/fibrillation/aggregation entry is “not observed”. Moreover, the “stability at room temperature (fibrillation)” value in data set [2] (eluate, 200 mM Glycine pH 9.5) was “less than one day”; in data set [2] (loading solution, 20 mM glycine, approx. 2% ethanol, pH approx. 3.3) it was “less than one day”. Besides, the “fibrillation in loading solution and eluate” value in data set [3] (60 runs, Source 30S, 10 mM TRIS loading solution, eluate adjusted to pH 8.0 with tris buffer) was “no fibrillation was observed”. Also, the results for the “change in pressure on column” value in data set [3] (setting [7]) and in data set [4] were “no change in pressure was observed” and “without change in pressure”, respectively. In addition, the “fibrillation on the column” value in data set [3] (setting [7]) is “no fibrillation had occurred on the column”. The “proteins or aggregated/fibrillated proteins on the column material” value in data set [4] is “no observation of proteins or aggregated/fibrillated proteins”.
Turning to “N^ε-hexadecanoyl-γ-glutamyl-Lys26-Arg34-GLP-1[7-37]”, the “fibrillation in loading solutions and eluates” value in data set [5] (60 runs, Source 30Q and RP-HPLC, 10-20 mM tris) is “no fibrillation was observed”. For the same substance, the “change in pressure on column” value was “no change in pressure was observed” in data set [5] (setting [8]) and “without change in pressure” in data set [6] (setting [9]). Further, the “fibrillation on the column” value in data set [5] (setting [8]) is “no fibrillation had occurred on the column”. Moreover, the “aggregated/fibrillated proteins on the column material” value is reported as “no observations of aggregated/fibrillated proteins” in data set [6] (RP-HPLC column 100 Å C-18 after 49 runs, 125 mM NaCl, approx. 45% ethanol, pH 6.9) and “no observation of aggregated/fibrillated proteins” in data set [6] (setting [9]).
